Experiments:
Experiment in all cases: Co-AP mass spectrometry with TMT quantification
MOGS = conditions: HEK293 cells; TMT intensities of interactors normalized to Tg intensities; read off a plot
PSMD3 = conditions: HEK293 cells; TMT intensities of interactors normalized to Tg intensities; read off a plot
PSMA1 = conditions: HEK293 cells; TMT intensities of interactors normalized to Tg intensities; read off a plot
PSMB4 = conditions: HEK293 cells; TMT intensities of interactors normalized to Tg intensities; read off a plot
PRKCSH = conditions: HEK293 cells; TMT intensities of interactors normalized to Tg intensities; read off a plot
UGGT2 = conditions: HEK293 cells; TMT intensities of interactors normalized to Tg intensities; read off a plot
PSME2 = conditions: HEK293 cells; TMT intensities of interactors normalized to Tg intensities; read off a plot
PSMC4 = conditions: HEK293 cells; TMT intensities of interactors normalized to Tg intensities; read off a plot
[1] = molecular target: oligosaccharyl transferase complex catalytic subunit A [human (endogenous in HEK293 cells)]; conditions: TMT intensities of interactors normalized to Tg intensities, read off a plot
[2] = molecular target: calreticulin [human (endogenous in HEK293 cells)]; conditions: TMT intensities of interactors normalized to Tg intensities, read off a plot

| Substance | other: log2 fold change vs WT (MOGS) | other: log2 fold change vs WT (PSMD3) | other: log2 fold change vs WT (PSMA1) | other: log2 fold change vs WT (PSMB4) | other: log2 fold change vs WT (UGGT2) | other: log2 fold change vs WT (PSME2) | screen value [1] | other results |
| --- | --- | --- | --- | --- | --- | --- | --- | --- |
| FLAG-tagged thyroglobulin, WT (from UniProt P01266) A2234D | 0.09 log2 | -0.35 log2 | -0.28 log2 | -0.33 log2 | 0.15 log2 | -0.27 log2 | – | other: log2 fold change vs WT (PRKCSH): -0.39 log2 |
| FLAG-tagged thyroglobulin, WT (from UniProt P01266) C1264R | -0.15 log2 | -0.45 log2 | -0.27 log2 | -0.35 log2 | -0.09 log2 | -0.54 log2 | – | other: log2 fold change vs WT (PSMC4): -0.53 log2; other: log2 fold change vs WT (PRKCSH): -0.05 log2 |
| FLAG-tagged thyroglobulin, WT (from UniProt P01266) G2341R | -0.05 log2 | -0.42 log2 | 0.04 log2 | -0.53 log2 | 0.73 log2 | -0.65 log2 | – | other: log2 fold change vs WT (PSMC4): -0.51 log2 |
| FLAG-tagged thyroglobulin, WT (from UniProt P01266) L2284P | -0.02 log2 | -0.33 log2 | -0.04 log2 | -0.51 log2 | 0.49 log2 | -0.45 log2 | – | other: log2 fold change vs WT (PSMC4): -0.27 log2 |
| FLAG-tagged thyroglobulin, WT mutant C1264R [human] / calreticulin [human (endogenous in HEK293 cells)] chain 1 C1245R | – | – | – | – | – | – | – | screen value [2]: 0.18 log2 |
| FLAG-tagged thyroglobulin, WT mutant G2341R [human] / calreticulin [human (endogenous in HEK293 cells)] chain 1 G2322R | – | – | – | – | – | – | – | screen value [2]: 0.46 log2 |
| FLAG-tagged thyroglobulin, WT mutant L2284P [human] / calreticulin [human (endogenous in HEK293 cells)] chain 1 L2265P | – | – | – | – | – | – | – | screen value [2]: 0.5 log2 |

The next lines start with results.

| other: log2 fold change vs WT (MOGS) | other: log2 fold change vs WT (PSMD3) | other: log2 fold change vs WT (PSMA1) | other: log2 fold change vs WT (PSMB4) | other: log2 fold change vs WT (UGGT2) | other: log2 fold change vs WT (PSME2) | screen value [1] | Substance | other results |
| --- | --- | --- | --- | --- | --- | --- | --- | --- |
| – | – | – | – | – | – | -0.15 log2 | FLAG-tagged thyroglobulin, WT mutant A2234D [human] / oligosaccharyl transferase complex catalytic subunit A [human (endogenous in HEK293 cells)] chain 1 A2215D | – |
| – | – | – | – | – | – | -0.37 log2 | FLAG-tagged thyroglobulin, WT mutant C1264R [human] / oligosaccharyl transferase complex catalytic subunit A [human (endogenous in HEK293 cells)] chain 1 C1245R | – |
| – | – | – | – | – | – | -0.21 log2 | FLAG-tagged thyroglobulin, WT mutant G2341R [human] / oligosaccharyl transferase complex catalytic subunit A [human (endogenous in HEK293 cells)] chain 1 G2322R | – |
| – | – | – | – | – | – | -0.1 log2 | FLAG-tagged thyroglobulin, WT mutant L2284P [human] / oligosaccharyl transferase complex catalytic subunit A [human (endogenous in HEK293 cells)] chain 1 L2265P | – |
